Literature values in patent publication EP3351262A1, “CURAGLUTIDE FOR IN TREATMENT OF PREDIABETES, DIABETES, OBESITY AND METABOLIC DISEASES ASSOCIATED THERETO” (Istanbul Universitesi Rektorlugu, priority 2016, dated 2018).

Details: in vivo; cited from earlier work

GLP-1: glucagon like peptide-1, a neuroendocrine (intestinal) hormone with incretin effect
half-life in plasma: 12 to 30 min
